Assay results reported in PMC10904058 (2024).

Biological target: FASN of the SPR analysis (UniProt P49327 1-2511)
Experiment: SPR

B1: TRIM56 of the SPR analysis (enzyme)
chain: MVSHGSSPSLLEALSSDFLACKICLEQLRAPKTLPCLHTYCQDCLAQLADGGRVRCPECRETVPVPPEGVASFKTNFFVNGLLDLVKARACGDLRAGKPACALCPLVGGTSTGGPATARCLDCADDLCQACADGHRCTRQTHTHRVVDLVGYRAGWYDEEARERQAAQCPQHPGEALRFLCQPCSQLLCRECRLDPHLDHPCLPLAEAVRARRPGLEGLLAGVDNNLVELEAARRVEKEALARLREQAARVGTQVEEAAEGVLRALLAQKQEVLGQLRAHVEAAEEAARERLAELEGREQVARAAAAFARRVLSLGREAEILSLEGAIAQRLRQLQGCPWAPGPAPCLLPQLELHPGLLDKNCHLLRLSFEEQQPQKDGGKDGAGTQGGEESQSRREDEPKTERQGGVQPQAGDGAQTPKEEKAQTTREEGAQTLEEDRAQTPHEDGGPQPHRGGRPNKKKKFKGRLKSISREPSPALGPNLDGSGLLPRPIFYCSFPTRMPGDKRSPRITGLCPFGPREILVADEQNRALKRFSLNGDYKGTVPVPEGCSPCSVAALQSAVAFSASARLYLINPNGEVQWRRALSLSQASHAVAALPSGDRVAVSVAGHVEVYNMEGSLATRFIPGGKASRGLRALVFLTTSPQGHFVGSDWQQNSVVICDGLGQVVGEYKGPGLHGCQPGSVSVDKKGYIFLTLREVNKVVILDPKGSLLGDFLTAYHGLEKPRVTTMVDGRYLVVSLSNGTIHIFRVRSPDS
  Kd: 17 nM
